Measured values published in patent US20210139581A1 (Alector, published 2021).

Key:
[1] = molecular target: human CD33 on primary human monocyte-derived dendritic cells (human, UniProt P20138 18-364); assay: cell-based or functional assay
human CD33 [2] = molecular target: T1, human CD33 (human, UniProt P20138 18-259, limits assumed); assay: BLI (ForteBio), Fab 100 nM on immobilized CD33
T1 construct: Human CD33 immobilized on the BLI sensor tip or the BIAcore C1 chip; also called Siglec-3

human CD33 [3] = molecular target: T1, human CD33; assay: BLI (ForteBio), Fab 100 nM on immobilized CD33; kon/koff columns printed 3 rows too low, assigned by koff/kon = printed KD of AB-63.10
Procedure: (§1) The affinities (KD) of the humanized antibodies for human CD33 were measured for each antibody by BioLayer Interferometry in a ForteBio assay according to standard techniques (Estep et al. (2013) MAbs 5(2): 270-8). […] The assay was carried out at room temperature.
(§2) The affinities of AB-H14 and its affinity-matured variants (Table 15) and AB-H63 and its affinity-matured variants (Table 16), for human CD33 were measured by Fortebio assay according to the method described in Example 1 above.

human CD33 [4] = molecular target: T1, human CD33; assay: BLI (ForteBio), Fab 100 nM on immobilized CD33; kon/koff columns printed 3 rows too low, assigned by koff/kon = printed KD of AB-63.12
Procedure: as §1, §2

human CD33 [5] = molecular target: T1, human CD33; assay: BLI (ForteBio), Fab 100 nM on immobilized CD33; kon/koff columns printed 3 rows too low, assigned by koff/kon = printed KD of AB-63.11
Procedure: as §1, §2

human CD33 [6] = molecular target: T1, human CD33; assay: BLI (ForteBio), Fab 100 nM on immobilized CD33; kon/koff columns printed 3 rows too low, assigned by koff/kon = printed KD of AB-63.14
Procedure: as §1, §2

human CD33 [7] = molecular target: T1, human CD33; assay: BLI (ForteBio), Fab 100 nM on immobilized CD33; kon/koff columns printed 3 rows too low, assigned by koff/kon = printed KD of AB-63.13
Procedure: as §1, §2

human CD33 [8] = molecular target: T1, human CD33; assay: BLI (ForteBio), Fab 100 nM on immobilized CD33; kon/koff columns printed 3 rows too low, assigned by koff/kon = printed KD of AB-63.15
Procedure: as §1, §2

Sequence of human CD33 on primary human monocyte-derived dendritic cells (P20138 18-364): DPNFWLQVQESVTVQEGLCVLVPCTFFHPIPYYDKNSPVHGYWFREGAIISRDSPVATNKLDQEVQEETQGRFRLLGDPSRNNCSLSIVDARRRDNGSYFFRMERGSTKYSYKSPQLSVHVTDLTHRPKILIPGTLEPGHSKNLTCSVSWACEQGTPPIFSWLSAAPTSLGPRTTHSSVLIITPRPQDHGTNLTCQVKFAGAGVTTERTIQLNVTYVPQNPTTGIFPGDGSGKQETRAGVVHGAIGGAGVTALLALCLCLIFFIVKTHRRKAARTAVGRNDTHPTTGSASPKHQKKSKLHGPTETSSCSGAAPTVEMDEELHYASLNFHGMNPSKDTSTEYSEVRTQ
T1 sequence (P20138 18-259 limits assumed): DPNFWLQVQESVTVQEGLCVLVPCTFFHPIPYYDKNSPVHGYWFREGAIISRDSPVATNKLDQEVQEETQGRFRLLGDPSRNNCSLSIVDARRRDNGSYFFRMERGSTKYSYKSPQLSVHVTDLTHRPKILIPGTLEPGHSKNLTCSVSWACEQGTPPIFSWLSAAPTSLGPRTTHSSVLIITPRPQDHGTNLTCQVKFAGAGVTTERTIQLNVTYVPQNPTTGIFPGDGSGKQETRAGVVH

Binder	Maximal Downregulation (% CD33 remaining) [1] [%]	Receptor downregulation (EC50) [1] [nM]	Fold affinity improvement over parental Ab (AB-H63) (human CD33 [2]) [fold]	Kd (human CD33 [2]) [nM]	koff (human CD33 [3]) [s⁻¹]	kon (human CD33 [3]) [M⁻¹ s⁻¹]	koff (human CD33 [4]) [s⁻¹]	kon (human CD33 [4]) [M⁻¹ s⁻¹]	koff (human CD33 [5]) [s⁻¹]	kon (human CD33 [5]) [M⁻¹ s⁻¹]	koff (human CD33 [6]) [s⁻¹]	kon (human CD33 [6]) [M⁻¹ s⁻¹]	koff (human CD33 [7]) [s⁻¹]	kon (human CD33 [7]) [M⁻¹ s⁻¹]	koff (human CD33 [8]) [s⁻¹]	kon (human CD33 [8]) [M⁻¹ s⁻¹]
AB-63.10 (antibody, V domains shown) VH: QVQLVQSGAEVKKPGASVKVSCKASGYTETDYNLHWVRQAPGQGLEWIGFIYPSNGITGYAQKFQGRVTMTVDTSTSTVYMELSSLRSEDTAVYYCARSDVDYFDYWGQGTLVTVSS VL: DIVLTQSPDSLAVSLGERATINCRASQDVSTSTYSYMHWYQQKPGQPPKLLIKYASNLESGVPDRFSGSGSGTDFTLTISSLQAEDVAVYYCQHSWELPLTFGQGTKLEIK	21.2	0.0418	5.84	0.466	0.000336	721000										
AB-63.12 (antibody, V domains shown) VH: QVQLVQSGAEVKKPGASVKVSCKASGYTFTDYNFHWVRQAPGQGLEWIGFIYPSNGITGYAQKFTGRVTMTVDTSTSTVYMELSSLRSEDTAVYYCARSTVDYFDDWGQGTLVTVSS VL: DIVLTQSPDSLAVSLGERATINCRASQDVSTSTYSYMHWYQQKPGQPPKLLIKYASNVESGVPDRFSGSGSGTDFTLTISSLQAEDVAVYYCQHSWAIPLTFGQGTKLEIK	27.5	0.035	9.84	0.277			0.0002	723000								
AB-63.11 (antibody, V domains shown) VH: QVQLVQSGAEVKKPGASVKVSCKASGYTFTDYNFHWVRQAPGQGLEWIGFIYPANGITGYAQKDQGRVTMTVDTSTSTVYMELSSLRSEDTAVYYCARSDVDYFDYWGQGTLVTVSS VL: DIVLTQSPDSLAVSLGERATINCRASQDVSTSTYSYMHWYQQKPGQPPKLLIKYASNLESGVPDRFSGSGSGTDFTLTISSLQAEDVAVYYCQHSWEIPLTFGQGTKLEIK	23	0.044	7.09	0.384					0.000322	839000						
AB-63.14 (antibody, V domains shown) VH: QVQLVQSGAEVKKPGSSVKVSCKASGYTFTDYNLHWVRQAPGQGLEWIGFIYPSNGITGYAQKFQGRVTMTVDTSTSTVYMELSSLRSEDTAVYYCARSDVDYFDYWGQGTLVTVSS VL: DIVLTQSPDSLAVSLGERATIDCKASQDVSTSTYSYMHWYQQKPGQPPKLLIKYASNLESGVPDRFSGSGSGTDFTLTISSLQAEDVAVYYCQHSWEIPLTFGQGTKLEIK	25.3	0.0519	11.2	0.244							0.0002	819000				
AB-63.13 (antibody, V domains shown) VH: QVQLVQSGAEVKKPGASVKVSCKASGYTFTDYNLHWVRQAPGQGLEWIGFIYPSNGIRGYAQKFQGRVTMTVDTSTSTVYMELSSLRSEDTAVYYCARSDVDYFDYWGQGTLVTVSS VL: DIVLTQSPDSLAVSLGERATINCRASQSVSTSTYSYMHWYQQKPGQPPKLLIKYASNLESGVPDRFSGSGSGTDFTLTISSLQAEDVAVYYCQHSEEIPLTFGQGTKLEIK	25.5	0.0448	12.1	0.225									0.00023	1.02e+06		
AB-63.15 (antibody, V domains shown) VH: QVQLVQSGAEVKKPGASVKVSCKASGYTFTDYNYHWVRQAPGQGLEWIGFIYPSNGITGYAQKFQGRVTMTVDTSTSTVYMELSSLRSEDTAVYYCARSDVDYFDLWGQGTLVTVSS VL: DIVLTQSPDSLAVSLGERATINCRASQDVSTSTYSYMHWYQQKPGQPPKLLIKYASNVESGVPDRFSGSGSGTDFTLTISSLQAEDVAVYYCQHSWEIPLTFGQGTKLEIE	27.5	0.0476	12.1	0.225											0.000204	903000
